The values that follow come from US20260132208A1 (DOMAIN THERAPEUTICS, published 2026).

One may read the IC50 as the midpoint of a concentration-inhibition curve.

Positions count from the first letter of the chain named. Values joined by “and” are separate entries in the source; they are usually repeats but may differ in a detail not shown here. Identical values can stand only once.

To fix the notation:
B1: anti-CCR8 mAb 1-3 (antibody, V domains shown)
VH: KVQLQQSGPELVKPGASVKISCKTSGYTFTEYTIHWVQQIHGKSPEWIGGINPNGDTRYDQKFKGKATLTIDKSSSTAYMELRSLTSEDSAVYYCARVARFYGISPYAMDYWGQGTSVTVSS
VL: DVVMTQTPLSLPVSLGDQASISCRCTQSLLHSNGDTYLHWYLQKPGQSPNLLIYKVSNRFSGVPDRFSGSGSGTDFTLKINRVEAEDLGVYFCSQSTHVPYTFGGGTNLEIK
notes: Murine hybridoma mAb
B2: anti-CCR8 mAb 1-6 (antibody, V domains shown)
VH: EVQLQQSGPELLKPGTSVKISCTTSGYTFSDYTLHWVKQSHGKSLEWIGGITPKNGDTRYDPRFKDKATLTIDKSSSAAYMELRSLTSEDSAVYYCARVARFYGVSPYAMDYWGQGASVTVSS
VL: B1 VL with N50K, K79E, N81T, S96T, N108K
notes: Murine hybridoma mAb
B3: anti-CCR8 mAb 1-5 (antibody, V domains shown)
VH: QVQLKESGPGLVAPSQSLSITCTVSGLSMNDYVVTWIRQPPGKGLEWLGVIWGGGNTYYNSDLKSRLSITKDNSKSQVFFKMSSLQTDDTAVYYCARRHRDYALDYWGQGISVTVSS
VL: B1 VL with C25S, T26S, L30V, H31Y, D35N, N50K, N81S, H98Y, Y101P, N108K
notes: Murine hybridoma mAb
B4: anti-CCR8 mAb 1-18 (antibody, V domains shown)
VH: QVQVQQSGAELARPGASVKMSCKASGYTFTTYAMHWVKQRPGQGLEWIGHINPSSGYSNYNQKFKDKATLTADKSSSTAYMQLSSLTSEDSAVYYCARSEVRRGYFDVWGAGTTVTVSS
VL: DIQMTQTTSSLSASLGDRVTISCRTSQDIRNYLNWYQQKPDGTVKLLISYTSRLHSGVPSRFSGSGSGTDYSLTISNLEQEDFATYFCQQGNTLPPTFGGGTRVEIK
notes: Murine hybridoma mAb

T6 sequence (peptide, as listed by the source): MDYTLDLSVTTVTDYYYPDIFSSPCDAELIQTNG

The target in the first test is T1, human CCR8 (human, UniProt P51685 1-355). Nature of the test: cell-based or functional assay.
On to B1, for which the “IC50 of CCL1-induced hCCR8 Gi2 signaling (BRET, HEK-293)” value was 0.069 µg/mL and 0.462 nM.
On the same count and under the same terms, the result for B2 reads 0.049 µg/mL and 0.328 nM.
On the same count and under the same terms, the result for B3 reads 0.143 µg/mL and 0.954 nM; that for B4, 0.004 µg/mL and 0.029 nM.

In another test the target is T1, human CCR8. As to the kind of experiment: cell-based or functional assay. This is another data set of the same source.
For the molecule B1, the “residual hCCL1 (100 nM) Gi2 response, protocol #2, mAb 0.08 µg/mL” value (“residual hCCL1 … mAb 0.08 µg/mL” below) was 101%; the “residual hCCL1 (100 nM) Gi2 response, protocol #2, mAb 0.4 µg/mL” value (“residual hCCL1 … mAb 0.4 µg/mL” below) is 93%; the “residual hCCL1 (100 nM) Gi2 response, protocol #2, mAb 10 µg/mL” value (shortened to “residual hCCL1 … mAb 10 µg/mL”) was determined as 100%; the “residual hCCL1 (100 nM) Gi2 response, protocol #3, mAb 0.05 µg/mL” value (“residual hCCL1 … mAb 0.05 µg/mL” below) came out at 92%. Further, the “residual hCCL1 (100 nM) Gi2 response, protocol #3, mAb 0.5 µg/mL” value (“residual hCCL1 … mAb 0.5 µg/mL” below) amounted to 81% and the “residual hCCL1 (100 nM) Gi2 response, protocol #3, mAb 5 µg/mL” value (shortened to “residual hCCL1 … mAb 5 µg/mL”) worked out at 73%.
On to B2, for which the “residual hCCL1 … mAb 0.08 µg/mL” value was 79%; the “residual hCCL1 … mAb 0.4 µg/mL” value turned out to be 38%; the “residual hCCL1 … mAb 10 µg/mL” value turned out to be 17%; the “residual hCCL1 … mAb 0.05 µg/mL” value stood at 102%. Also, the “residual hCCL1 … mAb 0.5 µg/mL” value turned out to be 64% and the “residual hCCL1 … mAb 5 µg/mL” value is 47%.
In the case of B3, the “residual hCCL1 … mAb 0.08 µg/mL” value is 99%; the “residual hCCL1 … mAb 0.4 µg/mL” value is 97%; the “residual hCCL1 … mAb 10 µg/mL” value turned out to be 97%; the “residual hCCL1 … mAb 0.05 µg/mL” value worked out at 99%. Further, the “residual hCCL1 … mAb 0.5 µg/mL” value amounted to 84% and the “residual hCCL1 … mAb 5 µg/mL” value came to 75%.
Turning to B4, the “residual hCCL1 … mAb 0.08 µg/mL” value was found to be 52%; the “residual hCCL1 … mAb 0.4 µg/mL” value is 68%; the “residual hCCL1 … mAb 10 µg/mL” value was 53%; the “residual hCCL1 … mAb 0.05 µg/mL” value was 76%. In addition, the “residual hCCL1 … mAb 0.5 µg/mL” value amounted to 62% and the “residual hCCL1 … mAb 5 µg/mL” value came out at 59%.

The target in another test is T1, human CCR8. As to the kind of experiment: cell-based or functional assay. The source holds these as a separate data set.
As to B1, the “extrapolated top plateau of hCCL1 curve with 5 µg/mL mAb, protocol #3” value is 663 % of hCCL1 (100 nM).
Still for that read-out and setting: the result for B2 reads 667000 % of hCCL1 (100 nM).
On the same count and under the same terms, the result for B3 reads 133 % of hCCL1 (100 nM).
Consider B4, for which the “extrapolated top plateau of hCCL1 curve with 5 µg/mL mAb, protocol #3” value is 948 % of hCCL1 (100 nM).

In another test the target is T1, human CCR8. Nature of the test: cell-based or functional assay. This is another data set of the same source.
As to B1, the “IC50 of CCL1-induced hCCR8 Gi2 signaling (BRET), pH 6.5” value (shortened to “IC50 … pH 6.5”) is 0.051 µg/ml and 0.34 nM; the “IC50 of CCL1-induced hCCR8 Gi2 signaling (BRET), pH 7.4” value (shortened to “IC50 … pH 7.4”) was 0.059 µg/ml and 0.396 nM.
In the case of B2, the “IC50 … pH 6.5” value was 0.044 µg/ml and 0.292 nM; the “IC50 … pH 7.4” value is 0.061 µg/ml and 0.405 nM.
Regarding B3, the “IC50 … pH 6.5” value is 0.414 µg/ml and 2.76 nM; the “IC50 … pH 7.4” value is 0.359 µg/ml and 2.4 nM.

The target in a further test is T2, pwt1 (none (unmodified peptide)).
T2 construct: also called unmodified CCR8 N-terminal peptide
T2 sequence (peptide, as listed by the source): as above
Nature of the test: ELISA on coated peptide [cont.]. In a few lines:
(§1)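 Steps: peptide coating (500 ng/ml, carbonate/bicarbonate); anti-CCR8 mAb added at 1 μg/mL and diluted 1/10; room-temperature incubation of 90 min; washes to remove unbound antibody; 15 min TMB; OD measurement.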
In general terms: ELISA stands for enzyme-linked immunosorbent assay.
Turning to B1, the binding result is listed as “binds”.
Consider B2, for which the binding result is listed as “binds”.
Turning to B3, the binding result is “binds”.
Turning to B4, the binding result is “binds”.

The target of the next test is T3, pm1 (sulfated tyrosine(s) among Y15, Y16, Y17; which ones is not told (the underlining of Table 1 is lost in the text)).
T3 construct: also called sulfated CCR8 N-terminal peptide pm1
T3 sequence (peptide, as listed by the source): as above
Nature of the test: ELISA on coated peptide [cont.]. In a few lines:
as §1
B1: the binding result is reported as “binds”.
Take B2: the binding result is “binds”.
Take B3: the binding result is given as “binds”.
With B4, the binding result is listed as “binds”.

The target in the next test is T4, pm2 (sulfated tyrosine(s) among Y15, Y16, Y17; which ones is not told (the underlining of Table 1 is lost in the text)).
T4 construct: also called sulfated CCR8 N-terminal peptide pm2
T4 sequence (peptide, as listed by the source): as above
Nature of the test: ELISA on coated peptide [cont.]. In a few lines: as §1
Turning to B1, the binding result is recorded as “binds”.
Same read-out and setting: the result for B2 reads “binds”; that for B3, “binds”; that for B4, “binds”.

For another test, the target named is T5, pm3 (Y17 sulfated; Y15 and Y16 not sulfated).
T5 construct: also called sulfated CCR8 N-terminal peptide pm3
T5 sequence (peptide, as listed by the source): as above
As to the kind of experiment: ELISA on coated peptide [cont.]. In a few lines: as §1
Regarding B1, the binding result is on record as “binds”.
Take B2: the binding result was “binds”.
In the case of B3, the binding result is reported as “binds”.
Still for that read-out and setting: the result for B4 reads “binds”.

Another test has as its target T6, pm4 (sulfated tyrosine(s) among Y15, Y16, Y17; which ones is not told (the underlining of Table 1 is lost in the text)).
T6 construct: also called sulfated CCR8 N-terminal peptide pm4
Nature of the test: ELISA on coated peptide [cont.]. In a few lines:
as §1
As for B1, the binding result was “binds”.
As for B2, the binding result was “binds”.
With B4, the binding result is recorded as “binds”.

For a further test, the target named is T7, pm5 (Y15 and Y17 sulfated; Y16 not sulfated).
T7 construct: also called sulfated CCR8 N-terminal peptide pm5
T7 sequence (peptide, as listed by the source): as above
As to the kind of experiment: ELISA on coated peptide [cont.]. Put shortly: as §1
For B1, the binding result is given as “binds”.
For B2, the binding result is reported as “binds”.
Consider B3, for which the binding result is reported as “binds”.
With B4, the binding result is recorded as “binds”.

The target of the next test is T8, pm6 (Y16 and Y17 sulfated; Y15 not sulfated).
T8 construct: also called sulfated CCR8 N-terminal peptide pm6
T8 sequence (peptide, as listed by the source): as above
As to the kind of experiment: ELISA on coated peptide [cont.]. In a few lines: as §1
As for B1, the binding result is recorded as “binds”.
B2: the binding result is “binds”.
For the molecule B3, the binding result is recorded as “binds”.
Regarding B4, the binding result is reported as “binds”.

For a further test, the target named is T9, pm8 (Y15, Y16 and Y17 sulfated).
T9 construct: also called sulfated CCR8 N-terminal peptide pm8
T9 sequence (peptide, as listed by the source): as above
Nature of the test: ELISA on coated peptide [cont.]. Put shortly: as §1
As for B1, the binding result is “binds”.
The same measure, in the same setting: the result for B2 reads “binds”; that for B3, “binds”.
Turning to B4, the binding result was “binds”.

For the next test, the target named is T1, human CCR8. Nature of the test: flow cytometry, hCCR8-transfected CHO-K1 cells. In a few lines: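 Bound mAb was detected with Alexa Fluor 488 anti-mouse IgG or PE anti-human IgG Fc by flow cytometry, with isotype controls. EC50 came from a four-parameter fit.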
With B1, the “% positive cells” value was 85.7% and the “MFI fold change to isotype ctrl” value was found to be 9.8 fold.
The matching figures for B2: 81.1% and 10.7 fold.
On to B3, for which the “% positive cells” value was determined as 85.2% and the “MFI fold change to isotype ctrl” value was 11.9 fold.
B4: the “% positive cells” value came to 77% and the “MFI fold change to isotype ctrl” value came to 9.2 fold.

In a further test the target is T1, human CCR8. Nature of the test: flow cytometry, inhibition of hCCL1-AF647 (10 nM) binding to hCCR8-CHO cells. Put shortly:
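hCCR8-transfected CHO cells preincubated 30 min at 4 °C with anti-CCR8 mAb (8 concentrations, top 10 μg/mL, 1/3 dilutions), washed, then exposed to labelled CCL1. Bound CCL1 quantified by flow cytometry; IC₅₀ of binding blockade from sigmoidal variable-slope fit.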
A general note: A flow cytometer gives signals particle by particle.
Turning to B1, the IC50 is 1.29 µg/mL and 8.62 nM.
For B2, the IC50 was 1.3 µg/mL and 8.71 nM.
As for B3, the IC50 was 15.2 nM and 2.65 µg/mL.
Same read-out and setting: the result for B4 reads 0.22 µg/mL and 1.46 nM.
